Laboratory results as given in the Human Domainome abundance scans (Beltran et al. 2025).

B1: Ankyrin-2, residues 3571 to 3650; numbered along this chain, Q01484 (parent)
chain: ERLAYIADHLGFSWTELARELDFTEEQIHQIRIENPNSLQDQSHALLKYWLERDGKHATDTNLVECLTKINRMDIVHLME

Variants of: B1
Assay: abundance fitness (aPCA) (normalised: wild type 0, dead -1); higher = more abundant; growth selection in yeast, the domain comes from the species named
Conditions: Homo sapiens

Abundance fitness, by site and new letter:
A45: L -0.002 | H -0.197 | C -0.189 | G -0.231 | V 0.101 | D 0.097 | R -0.002
D41: L -0.038 | I 0.004 | S -0.005 | N -0.02 | R -0.058 | Y -0.213 | T -0.013 | K -0.034 | Q -0.024 | G 0.006 | C -0.109 | W -0.2 | F -0.168 | A -0.01 | E -0.077 | M -0.019 | P -0.243 | V -0.065
P36: D -0.031 | I -0.805 | L -0.081 | T -0.052 | S -0.117 | V -0.14 | K -0.125 | M -0.017 | N 0.253 | Y -0.221 | C -0.123 | H -0.202 | E -0.044 | W -0.074 | Q -0.123 | R -0.076 | F -0.08 | G -0.045
H44: Q -0.062 | W -0.152 | N 0.051 | V 0.085 | Y -0.21 | P -0.992 | A 0.028 | R -0.226 | T -0.269 | L -0.008 | G -0.099 | S 0.016 | D -0.935
Q42: C 0.007 | I -0.33 | W -0.481 | A -0.068 | H -0.807 | R -0.12 | S 0.073 | T -0.538 | V -0.204 | P -0.768 | G -0.323
L46: A 0.143 | W 0.141 | C 0.184 | T -0.127 | P -0.885 | V -0.075 | G -0.574 | Y -0.336
E34: Y -0.148 | V -0.021 | W -0.022
N35: H -0.118 | Y -0.07 | Q 0.066 | I -0.087 | S -0.093 | L -0.128 | E -0.043 | A -0.066 | K -0.042 | T -0.071 | M -0.03 | W -0.049 | F -0.091 | D -0.296 | R -0.033 | V -0.084 | C -0.053
L39: P -0.016 | W -0.045 | G -0.108 | S -0.025 | Y 0.076 | E -0.027 | I 0.071 | H -0.155 | A 0.031 | V -0.043 | F -0.013 | C -0.017 | Q -0.102 | T -0.134 | R -0.109 | M -0.042 | K -0.087 | D -0.031
S38: H -0.14 | Y -0.474 | F -0.155 | N -0.065 | R -0.096 | M -0.059 | E -0.092 | W -0.358 | I -0.396 | D -0.038 | L -0.086 | Q -0.103 | T -0.039 | V -0.092 | P -0.832
S43: M -1.13 | P -0.32 | Y -0.508 | W -0.638 | R -0.701 | A -0.281 | V -0.25 | G -0.093 | L -0.216
Q40: E 0.051 | D 0.117 | W -0.065 | L -0.171 | R -0.07 | G -0.146 | P -0.045 | C -0.16 | T -0.033 | I -0.124 | A -0.104 | S -0.069
L47: A -0.191
N37: K -0.074 | F -0.003 | H -0.021 | S -0.031 | G -0.028 | M 0.099 | W -0.091 | Q -0.069 | D -0.015 | C -0.064 | L -0.067 | R -0.068 | T -0.093 | P -0.249 | A 0.043 | I -0.01 | Y -0.171
